The source of these data is the nanobody polyreactivity screen of Harvey et al. (2022).

The series in a line: yeast display, Sf9 membrane polyspecificity reagent, FACS + sequencing; frameworks hold sequencing errors. The procedure, abridged: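 Using colony PCR, genes from sorted yeast display clones were amplified, then sequenced on MiSeq at 2 × 250 and filtered by CDR length. The clones had been stained with 10% biotinylated, detergent-solubilized Sf9 membrane reagent for 1 hour at 4 °C and sorted by FACS into low and high (top ~1%) gates on anti-HA and streptavidin fluorescence. Polyreactivity labels come from the gate of origin.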
With “QVQVVESGGGLVQAGGSLRISCAASGRISVVHAMGWYRQAPGKERELVATINSGGSTYADSVKGRFTNSRDNAKNNVFFQMISQIPEDTAFYYCSARTFRISRLDFWGQCTQVTVSS”, the “polyreactivity (PSR sort gate)” value is recorded as “high polyreactivity”.

In the case of “QVQLVESGGGLVQAGGSLRLSCAASGFTFGSYTMGWYRQAPGKERELVAAITGRGGSTYYADSVKARFTISRDNAKNTVYLQMNSLKPVDTAVYYCAGRRGTTYVGYDYWGQGTQVTVSS”, the “polyreactivity (PSR sort gate)” value is “high polyreactivity”.

For “QVQLEESGGGLVQAGGSLRLAVLPPDLPSTLNDMGWYRQAPGKERELVAAITRGGSTNYADSVKGRFTISRDNAKNTVYLQMNSLKPEDTAVYYCAAPYAGWRDGGDYWGQGTQVTVSS”, the “polyreactivity (PSR sort gate)” value is “low polyreactivity”.

Turning to “QVQLVESGGGLVQAGGSLRLSCAASGSTFWSYTMGWYRQAPGKERELVAAIRFSGGSTYYADSVKGRFTISRDNAKNTVYLQMNSLKPEDTAVYYCAAGYYRRPYEYWGQGTQVTVSS”, the “polyreactivity (PSR sort gate)” value was “low polyreactivity”.

Turning to “QVQLVESGGGLVQAGGSLRLSCAASGYIWYYAMGWSRQAPGKERELVAAISWGGGSTYYADSVKGRFTISRDNAKNTVYLQMNSLKPEDTAVYYCATRCIPDDNARDYWGQGTQVTVSS”, the “polyreactivity (PSR sort gate)” value is recorded as “low polyreactivity”.

Turning to “QVQLVESGGGLVQAGGSLRLSCAASGFTFVRYAMGWYRQAPGKERELVAAISRRGGSTYYADSVKGRFTISRDNAKNTVYLQMNSLKPEDTAVYYCAARAPYRRVRMNYWGQGTQVTVSS”, the “polyreactivity (PSR sort gate)” value was “high polyreactivity”.

For “QVQLVESGGGLVQAGGSLRLSFAASGRTFSGYAMGWYRQAPGKERELVASISGSGSSTYYADSVKGRFTISRDNAKNTVYLQMNSLKPEHTAVYYCNATRAGENPDGGDEYWGQGTQVTVSS”, the “polyreactivity (PSR sort gate)” value is recorded as “high polyreactivity”.

As for “QVQLVESGGGLVQAGGSLRLSCAASGRIFPYYVMGWYRQAPGKERELVAAISRSGSSTYYADSVKGRFTISRDNAKNTVSLQMNSLKPEDTAVYSCAADYNWSPYYTRGDYWGQGTQVTVSS”, the “polyreactivity (PSR sort gate)” value was “high polyreactivity”.

As for “QVQLVESGGGLVQAGGSLRLSCAASGRIFYRYAMGWYRQAPGKEMELVASITRSGITHYADSVKGRFTISRDNAKNTVYLQKNSLKPEDTEVYYCNARRGSPAPYDYWGQGTQVTVSS”, the “polyreactivity (PSR sort gate)” value is given as “high polyreactivity”.

As for “QVQLVESGGGLVQAGGSLRLSCAASGRTFDAYAMGWYRQAPGKERELVATITSGGGTYYADSVKGRFTISRDNEKNTVYLQMNSLKPEDYAVYYCNKRYVVSRKYDYWGQGTQVTVSS”, the “polyreactivity (PSR sort gate)” value was “low polyreactivity”.

Regarding “QVQLVESGGGLVQAGGSLRLSCAASGRTFGIYTMGWYRQAPGKERELVASTYYADSVKGRFTISRDNAKNTVYLQMNSLKPEDTAVYYCNVERLKKSQEWYGYPNDYWGQGTQVTVSS”, the “polyreactivity (PSR sort gate)” value is recorded as “low polyreactivity”.

With “QVQLVESGGGLVQAGGSLRLSCAASGSILDYYVMGWYSQAPGKERELVAAIRGGGSTYYADSVKARFTISRDNAKNTVYLQMNSLKPEDTAVYYCAKDSQTARDFDYWGQGTQVTVSS”, the “polyreactivity (PSR sort gate)” value is given as “low polyreactivity”.

Regarding “QVQLVESGGGLVQAGGSLRLSCAASGSIFGGYGMGWYRQAPGKERELVAAITSGSSTYYADSVKGRFTISRDNAKNTVYLQMNSLKPEDTAVYNCAARPYPHSAYEGDYWGRGTQVTVSS”, the “polyreactivity (PSR sort gate)” value is “low polyreactivity”.

Consider “QVQLVESGGGLVQEGGSLRLSCAASGSTFSNYMGWYRQAPGKERELVAAITQSGVSTYYADSVKGRFTISRDNAKNTVYLQMNSLKPEDTAVYYCYNYLSGYDYWGQGTQVTVSS”, for which the “polyreactivity (PSR sort gate)” value is “low polyreactivity”.

Consider “QVQLVESGGGLVQAGGSLRLSSAASGLIFYDNMGWSRQAPGKERELDAAISSSGGSTSDADSVKGRFTISRDNAKNTVYLQMNSLKPEDTAVYYCAADSYPDYLGFVGFDYWGQGTQVTVSS”, for which the “polyreactivity (PSR sort gate)” value is listed as “low polyreactivity”.

Turning to “QVQLVESGGGLVQAGGSLRLSCAASGYIGNYPMGWYRQAPGKESELVAAITTSGGRTYYADSVKGRFTISRDNAKNTVYVQMNSLKPEDTAVYYCAAPWRLFSLYDYWGQGTQVTVSS”, the “polyreactivity (PSR sort gate)” value was “low polyreactivity”.

Take “QVQLVESGGGLVQAGGSLRLSCAASGIIFAYYAMGWYRQAPGKVRELVASITNTGSTYYADSVKGRFTISRDNAKNTVYLQMNSLKPEDTAVYYCNAVLSSNTKWRYPGDYWGQGTQVTVSS”: the “polyreactivity (PSR sort gate)” value is listed as “low polyreactivity”.

With “QVQLVESGGGLVQAGGRLRLSCAASGIIFGGYSMGWYRQAPGKERELVADITWSGGSTTYADSVKGRFTISRDNAKNTVYLQMNSLKPEDTAVYYCAAEDYYIYREPYDYWGQGTQVTVSS”, the “polyreactivity (PSR sort gate)” value is recorded as “low polyreactivity”.

“QVQLVESAGGLVQAGGSLRLSCAASGITFEVYAMGWYRQAPGKERELVAAITGSGSRTYYADSVKGRFTISRDNAKNTVYLQMNSLKPEDTAVYYCAVKGFSTRSYREFDYWGQGSQVTVSS”: the “polyreactivity (PSR sort gate)” value is reported as “low polyreactivity”.

For “QVQLVESGGGLVQAGGSLRLSCAASGSTFNRYAMGWYRQAPGKERELVAAITRSGTSTYYADSVKGRFTISRDNAKNTVYLQMNSLKPEDTAVYYCAAVRYAVHFSYDYWGQGTQVTVSS”, the “polyreactivity (PSR sort gate)” value was “high polyreactivity”.

For the sequence “QVQIVESGGGLVEAGGSLRLTCAASGSIFGGNAMGWYRQAPGKERELVAAITSTVSTNYADSVKGRFTISRDNAKNTVYLQMNSLKPEDNAVYYCATDTSNVEGDYWGQGTQVTVSS”, the “polyreactivity (PSR sort gate)” value is recorded as “low polyreactivity”.

With “QVQLVQSGGGLVQAGGSLRLSCAASGFTFRFYAMGWYRQATGKERELVASINWSGGRTYYADSVKGRFTISRDNAKNTVYLEMNSLKPVDTAVYYCATQYLIQTKYYSWGQGTQVTVSS”, the “polyreactivity (PSR sort gate)” value is reported as “high polyreactivity”.

Turning to “QVQLVDSGGGLVQAGGSLRLSCAASGFIFSSYAMVWYRQAPGKERELVAAISRSGGYTYYADSVKGRFTISRDNAKNTVYFQMNSLNAEDTAVYYCATRSYMPGVRRGYDYWGKGTQVTVSS”, the “polyreactivity (PSR sort gate)” value is reported as “high polyreactivity”.

As to “QVQLVESGGGLVQAGGSLRLSCAASGRIFPKYAMGWYRQAPGKERELVAAITGIGTSTYYADSVKGRFTISRDNAKNTVYLQMNSLKPEDTAVYYCAADTWTIVDYGYWGQGTQVTVSS”, the “polyreactivity (PSR sort gate)” value was “low polyreactivity”.

Take “QVQLVESGGGLVQAGGSLRLSCAASGRTFRYNAMGWYRQAPGKERELVATISSSGGSTSYADSVKGRFTISRDNAKNTVYLQMNSLKPEDTAVYYCAADEWGVRSEYDYWGQGTQVTVSS”: the “polyreactivity (PSR sort gate)” value is listed as “low polyreactivity”.

With “QVQLVESGGGIVQAGGSLRLSCAASGIIFRAYAMGWSRQAPGKERELVAAISWSGGSTYYADSVKGRFTISRDNAKYTVYLQMNSLNPEDTAVYYCAAESLVYDFDYWGQGTQVTVSS”, the “polyreactivity (PSR sort gate)” value was “high polyreactivity”.

On to “QVQHVESGGGLVQAGGSLRLSCAASGYTFCRYAMGWYRQAPGKERELVAAISQSGGRTYYADSVKGRFTISRDNAKNTVYFQMNSLKPDDTAVYYCATSSTQGDDYWGQGTQVTVSS”, for which the “polyreactivity (PSR sort gate)” value is given as “high polyreactivity”.

On to “QVQLVESGGALVQAGGSLRLSCAASGFTFNVYAMGWYRPAPGKERELVAAITSSGGSTYYADSVKGRFTISRDNAKNTVYLQMNSLIPDDTAVYYCNVVRDWLLYRGSYIVKFDYWGQGTQVTVSS”, for which the “polyreactivity (PSR sort gate)” value was “high polyreactivity”.

Regarding “QVQLVESGGGLVQAGGSLRLSCAASGSIFSYNVMGWYRPAPGKERELVAAITQSGTSTYYADSVKGRFTISRDNAKNTVYLQMNSLKPEDTAVYYCAVDWYSAYGGYYWSQYDYWGQGTQVTVSS”, the “polyreactivity (PSR sort gate)” value is recorded as “low polyreactivity”.

In the case of “QVQLEESGGGLVQAGGSLRLSCAASGLTFPWYAMGWYRPATGKEREFVAAITGGGSTYYADSVKGRFTISRDNAKNTVYLQMNSLKPEDTAVYYCNTDVPYGLDVSDTIDYYYWGQGTLVTVSS”, the “polyreactivity (PSR sort gate)” value is given as “low polyreactivity”.

With “QVQLVESGGGLVQAGGSLRLSCAASGSTFVRYAMGWYRPAPGKERELVAVISSSGGTTYYADSVKGRFTISRDNAKNTVYLQMNSLKPEDTAVYSCARRVRWWGPRRSDFDYWGQGTQVTVSS”, the “polyreactivity (PSR sort gate)” value was “high polyreactivity”.

With “QVQLVESGGGLVQAGGSLRLSCAASGSTFVYYAMGGYRQAPGKERELDAAITSSGVRTYYADSVKGRFTISRDNAKNTVYLQMNSLKPEVTAVYYCAKRSTRLYSFTYQGYGYWGQGTQVTVSS”, the “polyreactivity (PSR sort gate)” value is reported as “high polyreactivity”.

On to “QVQLVESGGGLVQAGGSLRLSCAASGRIFSYYAMGWYRQAPGKERELVARISWRGGSTYYADSVKGRFTISRDNSKNTVYLQMNSLKPEDSAVYYCAATSPYYRTGYDYWGQGTQVTVSS”, for which the “polyreactivity (PSR sort gate)” value is given as “high polyreactivity”.

In the case of “QVQLVESGGGLVQAGGSLRLSCAASGFIFADYAMGWYRQAPGKARELVAAINRGASTYYADSVKGRFSISRDNAKNTVYFQMNSLKPEDTAVYYCAAAGYSRGGRGGYWGHGTQVTVSS”, the “polyreactivity (PSR sort gate)” value is recorded as “high polyreactivity”.

Take “QVQLQESGGLVQAGGLRLSCAASGSVSYQEAMGWYRQSPGKERELVATISFGANTNYADSVKGRFTISRDNAKNTVYLQMNSLKPEDTAVYYCAAESLFDDYYGYWGQGTQVTVSS”: the “polyreactivity (PSR sort gate)” value is “low polyreactivity”.

Regarding “QVQLVESGGGLVQAGGSLRLSCAASGRIFAYNARGWYRQAPGKERELVADISSGGNTYYADSVKGRFTISRDNAKNTVYLQMNSLKPEDTAVYYCAADIAWYTHYHRIFDYWGQGTQVTVSS”, the “polyreactivity (PSR sort gate)” value is recorded as “low polyreactivity”.

For the sequence “QVQLVESGGGLVQAGGSLRLSCAASGRTFLYYAMGWYRQAPGKERELVAAISSGGSTNYADSVKGRFTISRDNAKNTVYLQMNSLKPEDTAVYYCNADYTSRDTSDVIYEYDYWGQGTQVTVSS”, the “polyreactivity (PSR sort gate)” value was “low polyreactivity”.

Regarding “QGQLVESGGGLVQAGGSLRLSCAASGFTFQYYAMGWYRQAPGKDRELVAALSSSGGRTFYADSVKGRFTISRDNAKNTVYLQMNSLKAEDTAVYYCAAVWYGFLYYYWGQGTQVTVSS”, the “polyreactivity (PSR sort gate)” value was “high polyreactivity”.

As to “QVQRVESGGGLVQAGGSLRLSCAASGSIFYQYAMGWYRQAPGKEREVVAAITIGGSTNYADSVKGRFTISRDNAKNTVYLQMNSLKPEDTAVYYCNADKNWYGHEYDYWGQGTQVTVSS”, the “polyreactivity (PSR sort gate)” value is recorded as “low polyreactivity”.

Turning to “QVQLVESGGGLVQAGGSLRLSCAASGGTFESYTMGWYRQAPGKERELVATISTSGGRTYYADSVKGRFTISRDNAKNTVYLQMHSLKPEDTAVYYCNKVSDAYGEYVTLHLDYWGQGTLVTVSS”, the “polyreactivity (PSR sort gate)” value is reported as “low polyreactivity”.

“QVQLVESGGGLVQAGGSLRLSCAASGRIFHFYVMGWYRQAPGKERELVASITRGGNTNYADSVKGRFTISRDNAKNTVYLQMNSLKPEDTAVYYCNGEGYYTRDDSWGQGTQVTVSS”: the “polyreactivity (PSR sort gate)” value is on record as “low polyreactivity”.
